Measured values: PMC2962900, “Kinetics of Methylation by EcoP1I DNA Methyltransferase” (Enzyme Research, 2010)

B1: EcoP1I DNA methyltransferase (M.EcoP1I) (Escherichia phage P1) (protein)
chain: MKKETIFSEVETANSKQLAVLKANFPQCFDKNGAFIQEKLLEIIRASEVELSKESYSLNWLGKSYARLLANLPPKTLLAEDKTHNQQEENKNSQNLLIKGDNLEVLKHMVNAYAEKVNMIYIDPPYNTGKDGFVYNDDRKFTPEQLSELAGIELDEANRILEFTTKGSSSHSAWLTFIYPRLYIARELLKEDGVIFISIDDNEDKQLGLLCDEVFGQGNFVAKLPTIMNLKGNHDNFGFSDTHEYIYVYAKNKDVCSLGQFDIDESEVEKEWDEDEYGLFKRADTLKRTGQDASRKSRPKGWFPVFINSENKVYVTDDDKPLNEDDYVLYPVSPTGEELSWSWGKKKINDEFYNLIVIDIKDGKNIYKKQRPALGELPTKKPKSIWYKPEYSTSTATTELKNLLGAKLFEGPKPVPLITDLVKIGTKKDSLVLDFFAGSGTTAEAVAYLNEKDSGCRNFICIQKDEVINKTKNAYSLGYRSIFEITKKRIQEVFKKSTTTSDNAAKIGFKVIHTIDDFRAKVESELTLTNHTFFDDAVLTPEQYDALLTTWCVYDGSLLTTPIEDVDLSGYTAHFCNGRLYLIAPNFTSEALKALLQKLDSDEDFAPNKVVFYGCNFESAKQRELNEALKSYANKKSIELDLVVRN
B2: EcoP1I DNA methyltransferase (M.EcoP1I) (enzyme, bacteriophage P1, UniProt P08763 1-646, looked up)
chain: B1 chain
notes: EcoP1I DNA methyltransferase, product of the mod gene of the EcoP1I Type III restriction-modification system of bacteriophage (prophage) P1; 1948 bp gene amplified with primers from the 5' and 3' ends of the open reading frame, cloned in the BamHI site of pET15b (construct pSN2); calculated mass ~75 kDa; No removal of the His6 tag is described. pET15b adds linker residues between the tag and the …

Key:
[1] = substrate: C[S+](CC[C@H](N)C(=O)O)C[C@H]1O[C@@H](n2cnc3c(N)ncnc32)[C@H](O)[C@@H]1O; assay: purified protein; details: Mg2+; DNA 1 μM (which DNA not stated); enzyme 400 nM; AdoMet 50 nM-2 μM; 30 min; labelled compound
[2] = biological target: the molecule itself; assay: SEC; Superose 6 HR 10/30, buffer B (10 mM Tris-HCl pH 7.4, 100 mM NaCl, 0.1 mM EDTA, 10% glycerol, 7 mM beta-mercaptoethanol), 0.2 mL/min; 3-15 uM M.EcoP1I loaded; column calibrated with marker proteins

Protein | Km [1] [µM] | stoichiometry N [2]
B1 | 0.5 | 
B2 |  | 2
